Legend:
[1] = biological target: T1, Recombinant gp120 from HIV-1 IIIB (HIV-1 IIIB, UniProt P04578); assay: cell-based or functional assay
[2] = biological target: T1, Recombinant gp120 from HIV-1 IIIB; assay: SPR

B1: A12 mutant 1 (Tyr101 to Ala101) (VHH)
VHH: AVQLVESGGGLVQAGGSLRLSCTASGRISSSYDMGWFRQAPGKEREFVAAISWSGGTTDYADSVKGRFAISKDNAKNAVSLQMNSLKPEDTAVYYCAAKWRPLRYSDYPSNSDYADWGQGTQVTVSS
In the case of B1, the “neutralisation of HIV-1 IIIB, TZM-bl luciferase assay, IC50” value (shortened to “neutralisation of HIV-1 IIIB”) [1] is reported as less than 1 µg/mL.

B2: A12 mutant 2 (Tyr101 to Asn101) (VHH)
VHH: AVQLVESGGGLVQAGGSLRLSCTASGRISSSYDMGWFRQAPGKEREFVAAISWSGGTTDYADSVKGRFAISKDNAKNAVSLQMNSLKPEDTAVYYCAAKWRPLRYSDYPSNSDYNDWGQGTQVTVSS
B2 was tested, and the “neutralisation of HIV-1 IIIB” value [1] was less than 1 µg/mL.

B3: A12 mutant 3 (Tyr101 to Gln101) (VHH)
VHH: AVQLVESGGGLVQAGGSLRLSCTASGRISSSYDMGWFRQAPGKEREFVAAISWSGGTTDYADSVKGRFAISKDNAKNAVSLQMNSLKPEDTAVYYCAAKWRPLRYSDYPSNSDYQDWGQGTQVTVSS
B3 was tested, and the “neutralisation of HIV-1 IIIB” value [1] was less than 1 µg/mL.

B4: mutant 7 of A12/D7 (VHH)
VHH: AVQLVESGGGLAQAGGSLRLSCTVSGRTSSSHDMGWFRQAPGKEREFVAAISWSGGTTNYADSVKGRFAISKDNAKNAVSLQMNSLKPEDTAVYYCAAKWRPLRYSDNPSNSDYNDWGQGTQVTVSS
For B4, the “neutralisation of HIV-1 IIIB” value [1] was less than 1 µg/mL.

B5: A12 VHH (VHH)
VHH: AVQLVESGGGLVQAGGSLRLSCTASGRISSSYDMGWFRQAPGKEREFVAAISWSGGTTDYADSVKGRFAISKDNAKNAVSLQMNSLKPEDTAVYYCAAKWRPLRYSDYPSNSDYYDWGQGTQVTVSS
B5 was tested, and the Kd [2] was 0.1 nM, the koff [2] was 2.98e-05 s⁻¹ and the kon [2] was 273000 M⁻¹ s⁻¹.

B6: D7 VHH (VHH)
VHH: AVQLVESGGGLAQAGGSLRLSCTVSGRTSSSHDMGWFRQAPGKEREFVAAISWSGGTTNYADSVKGRFAISKDNAKNAVSLQMNSLKPEDTAVYYCAAKWRPLRYSDNPSNSDYNYWGQGTQVTVSS
B6 was tested, and the Kd [2] was 2.9 nM, the koff [2] was 0.000551 s⁻¹ and the kon [2] was 155000 M⁻¹ s⁻¹.

Reference: publication PMC2885190 (The Journal of Biological Chemistry, 2010)
